Results reported in article PMC6820730 (2019).
No end group written: not given here.

Target: AVPR1a (Homo sapiens, UniProt P37288)
Assay: 125I-OVTA competition binding, intact CHO cells

AVPR1a, sequence (P37288 whole entry): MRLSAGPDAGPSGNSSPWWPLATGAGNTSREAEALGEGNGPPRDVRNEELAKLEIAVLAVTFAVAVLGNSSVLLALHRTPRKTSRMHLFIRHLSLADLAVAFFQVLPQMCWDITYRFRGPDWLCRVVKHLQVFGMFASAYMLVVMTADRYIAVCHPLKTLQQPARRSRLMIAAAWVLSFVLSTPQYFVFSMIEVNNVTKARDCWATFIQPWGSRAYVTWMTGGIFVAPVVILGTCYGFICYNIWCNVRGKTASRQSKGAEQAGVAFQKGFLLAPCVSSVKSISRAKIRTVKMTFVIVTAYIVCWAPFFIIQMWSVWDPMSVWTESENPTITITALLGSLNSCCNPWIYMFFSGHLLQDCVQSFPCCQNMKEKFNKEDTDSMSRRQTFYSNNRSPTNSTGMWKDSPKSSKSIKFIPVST

Q: With CYIQNCPPG (not fully specified; cysteine pairing not given here) [Pro8-OXT] as the binder, how does the Ki read?
A: 8.71 nM
